The target of assay [1] is human glucagon receptor (hGCGR) (human, UniProt P47871 26-477). As to the kind of experiment: cell-based or functional assay.
Assay [2] addresses human GLP-1 receptor (hGLP-1R) (human, UniProt P43220 24-463). The experiment in a line: cell-based or functional assay.

Here are results for eight molecules from US20230357348A1 (AstraZeneca / MedImmune, published 2023).

Starred links: 1 amine or outer side, 2 acyl side, 3 side chain; linkers in the order of their positions; H or OH if unused. Non-standard residues stand in square brackets, D forms with d. Groups on a side chain read outwards from the residue. No end group written: not given here. *: point of attachment. C20 diacid = O=C(O)CCCCCCCCCCCCCCCCCCC(=O)*; C18 diacid = O=C(O)CCCCCCCCCCCCCCCCC(=O)*; γGlu = O=C(O)[C@H](CCC(=O)[*:2])N[*:1]; αMeF = C[C@](N)(Cc1ccccc1)C(=O)O; AEEA = NCCOCCOCC(=O)O; Aib = CC(C)(N)C(=O)O

Sequence of human glucagon receptor (hGCGR) (P47871 26-477): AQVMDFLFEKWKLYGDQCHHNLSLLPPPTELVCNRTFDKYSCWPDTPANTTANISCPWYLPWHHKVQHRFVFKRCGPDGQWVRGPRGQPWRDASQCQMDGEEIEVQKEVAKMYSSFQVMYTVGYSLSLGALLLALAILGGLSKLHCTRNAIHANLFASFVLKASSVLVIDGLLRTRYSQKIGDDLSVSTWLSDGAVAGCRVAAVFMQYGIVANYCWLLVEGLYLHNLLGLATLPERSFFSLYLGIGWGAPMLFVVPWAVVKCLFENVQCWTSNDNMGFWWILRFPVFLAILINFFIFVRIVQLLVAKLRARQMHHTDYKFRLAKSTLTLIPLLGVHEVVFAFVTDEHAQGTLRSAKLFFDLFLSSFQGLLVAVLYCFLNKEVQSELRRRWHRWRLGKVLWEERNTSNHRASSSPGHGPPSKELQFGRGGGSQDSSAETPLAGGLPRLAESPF

B1: Peptide 35 (peptide)
peptide: H[Aib]QGTFTSDVSK[αMeF]LDTK([AEEA-AEEA-γGlu-C18 diacid])RAQDFVQWLL[Aib]T-OH
modifications: N-terminus assumed
SMILES: CC(C)C[C@H](NC(=O)[C@H](Cc1c[nH]c2ccccc12)NC(=O)[C@H](CCC(N)=O)NC(=O)[C@@H](NC(=O)[C@H](Cc1ccccc1)NC(=O)[C@H](CC(=O)O)NC(=O)[C@H](CCC(N)=O)NC(=O)[C@H](C)NC(=O)[C@H](CCCNC(=N)N)NC(=O)[C@H](CCCCNC(=O)COCCOCCNC(=O)COCCOCCNC(=O)CC[C@H](NC(=O)CCCCCCCCCCCCCCCCC(=O)O)C(=O)O)NC(=O)[C@@H](NC(=O)[C@H](CC(=O)O)NC(=O)[C@H](CC(C)C)NC(=O)[C@](C)(Cc1ccccc1)NC(=O)[C@H](CCCCN)NC(=O)[C@H](CO)NC(=O)[C@@H](NC(=O)[C@H](CC(=O)O)NC(=O)[C@H](CO)NC(=O)[C@@H](NC(=O)[C@H](Cc1ccccc1)NC(=O)[C@@H](NC(=O)CNC(=O)[C@H](CCC(N)=O)NC(=O)C(C)(C)NC(=O)[C@@H](N)Cc1c[nH]cn1)[C@@H](C)O)[C@@H](C)O)C(C)C)[C@@H](C)O)C(C)C)C(=O)N[C@@H](CC(C)C)C(=O)NC(C)(C)C(=O)N[C@H](C(=O)O)[C@@H](C)O
B1: the “hGluc-R EC50 (pM)” value in assay [1] was determined as 335 pM. In addition, the “hGLP-1R EC50 (pM)” value in assay [2] worked out at 83.7 pM.

B2: Peptide 33 (peptide)
peptide: H[Aib]QGTFTSDVSK[αMeF]LDSK([AEEA-AEEA-γGlu-C18 diacid])RAQDFVQWLE[Aib]T-OH
modifications: N-terminus assumed
SMILES: CC(C)C[C@H](NC(=O)[C@H](Cc1c[nH]c2ccccc12)NC(=O)[C@H](CCC(N)=O)NC(=O)[C@@H](NC(=O)[C@H](Cc1ccccc1)NC(=O)[C@H](CC(=O)O)NC(=O)[C@H](CCC(N)=O)NC(=O)[C@H](C)NC(=O)[C@H](CCCNC(=N)N)NC(=O)[C@H](CCCCNC(=O)COCCOCCNC(=O)COCCOCCNC(=O)CC[C@H](NC(=O)CCCCCCCCCCCCCCCCC(=O)O)C(=O)O)NC(=O)[C@H](CO)NC(=O)[C@H](CC(=O)O)NC(=O)[C@H](CC(C)C)NC(=O)[C@](C)(Cc1ccccc1)NC(=O)[C@H](CCCCN)NC(=O)[C@H](CO)NC(=O)[C@@H](NC(=O)[C@H](CC(=O)O)NC(=O)[C@H](CO)NC(=O)[C@@H](NC(=O)[C@H](Cc1ccccc1)NC(=O)[C@@H](NC(=O)CNC(=O)[C@H](CCC(N)=O)NC(=O)C(C)(C)NC(=O)[C@@H](N)Cc1c[nH]cn1)[C@@H](C)O)[C@@H](C)O)C(C)C)C(C)C)C(=O)N[C@@H](CCC(=O)O)C(=O)NC(C)(C)C(=O)N[C@H](C(=O)O)[C@@H](C)O
With B2, in assay [1], the “hGluc-R EC50 (pM)” value turned out to be 548 pM. For the same molecule, in assay [2], the “hGLP-1R EC50 (pM)” value is 213 pM.

B3: Peptide 519 (peptide)
peptide: H[Aib]QGTFTSDVSK[αMeF]LDTK([γGlu-γGlu-AEEA-AEEA-γGlu-γGlu-C18 diacid])RARDFVQWLLE[Aib]G-OH
modifications: N-terminus assumed
SMILES: CC(C)C[C@H](NC(=O)[C@H](Cc1c[nH]c2ccccc12)NC(=O)[C@H](CCC(N)=O)NC(=O)[C@@H](NC(=O)[C@H](Cc1ccccc1)NC(=O)[C@H](CC(=O)O)NC(=O)[C@H](CCCNC(=N)N)NC(=O)[C@H](C)NC(=O)[C@H](CCCNC(=N)N)NC(=O)[C@H](CCCCNC(=O)CC[C@H](NC(=O)CC[C@H](NC(=O)COCCOCCNC(=O)COCCOCCNC(=O)CC[C@H](NC(=O)CC[C@H](NC(=O)CCCCCCCCCCCCCCCCC(=O)O)C(=O)O)C(=O)O)C(=O)O)C(=O)O)NC(=O)[C@@H](NC(=O)[C@H](CC(=O)O)NC(=O)[C@H](CC(C)C)NC(=O)[C@](C)(Cc1ccccc1)NC(=O)[C@H](CCCCN)NC(=O)[C@H](CO)NC(=O)[C@@H](NC(=O)[C@H](CC(=O)O)NC(=O)[C@H](CO)NC(=O)[C@@H](NC(=O)[C@H](Cc1ccccc1)NC(=O)[C@@H](NC(=O)CNC(=O)[C@H](CCC(N)=O)NC(=O)C(C)(C)NC(=O)[C@@H](N)Cc1c[nH]cn1)[C@@H](C)O)[C@@H](C)O)C(C)C)[C@@H](C)O)C(C)C)C(=O)N[C@@H](CC(C)C)C(=O)N[C@@H](CCC(=O)O)C(=O)NC(C)(C)C(=O)NCC(=O)O
Regarding B3, in assay [1], the “hGluc-R EC50 (pM)” value is 386 pM. Also, the “hGLP-1R EC50 (pM)” value in assay [2] turned out to be 172 pM.

B4: Peptide 153 (peptide)
peptide: H[Aib]QGTFTSDVSK[αMeF]LDSK([AEEA-AEEA-γGlu-C20 diacid])RAQDFVRWLL[Aib]E-OH
modifications: N-terminus assumed
SMILES: CC(C)C[C@H](NC(=O)[C@H](Cc1c[nH]c2ccccc12)NC(=O)[C@H](CCCNC(=N)N)NC(=O)[C@@H](NC(=O)[C@H](Cc1ccccc1)NC(=O)[C@H](CC(=O)O)NC(=O)[C@H](CCC(N)=O)NC(=O)[C@H](C)NC(=O)[C@H](CCCNC(=N)N)NC(=O)[C@H](CCCCNC(=O)COCCOCCNC(=O)COCCOCCNC(=O)CC[C@H](NC(=O)CCCCCCCCCCCCCCCCCCC(=O)O)C(=O)O)NC(=O)[C@H](CO)NC(=O)[C@H](CC(=O)O)NC(=O)[C@H](CC(C)C)NC(=O)[C@](C)(Cc1ccccc1)NC(=O)[C@H](CCCCN)NC(=O)[C@H](CO)NC(=O)[C@@H](NC(=O)[C@H](CC(=O)O)NC(=O)[C@H](CO)NC(=O)[C@@H](NC(=O)[C@H](Cc1ccccc1)NC(=O)[C@@H](NC(=O)CNC(=O)[C@H](CCC(N)=O)NC(=O)C(C)(C)NC(=O)[C@@H](N)Cc1c[nH]cn1)[C@@H](C)O)[C@@H](C)O)C(C)C)C(C)C)C(=O)N[C@@H](CC(C)C)C(=O)NC(C)(C)C(=O)N[C@@H](CCC(=O)O)C(=O)O
For the molecule B4, the “hGluc-R EC50 (pM)” value in assay [1] is 99 pM. Further, the “hGLP-1R EC50 (pM)” value in assay [2] was 41.2 pM.

B5: Peptide 34 (peptide)
peptide: H[Aib]QGTFTSDVSK[αMeF]LDSK([AEEA-AEEA-γGlu-C18 diacid])RAQDFVQWLL[Aib]E-OH
modifications: N-terminus assumed
SMILES: CC(C)C[C@H](NC(=O)[C@H](Cc1c[nH]c2ccccc12)NC(=O)[C@H](CCC(N)=O)NC(=O)[C@@H](NC(=O)[C@H](Cc1ccccc1)NC(=O)[C@H](CC(=O)O)NC(=O)[C@H](CCC(N)=O)NC(=O)[C@H](C)NC(=O)[C@H](CCCNC(=N)N)NC(=O)[C@H](CCCCNC(=O)COCCOCCNC(=O)COCCOCCNC(=O)CC[C@H](NC(=O)CCCCCCCCCCCCCCCCC(=O)O)C(=O)O)NC(=O)[C@H](CO)NC(=O)[C@H](CC(=O)O)NC(=O)[C@H](CC(C)C)NC(=O)[C@](C)(Cc1ccccc1)NC(=O)[C@H](CCCCN)NC(=O)[C@H](CO)NC(=O)[C@@H](NC(=O)[C@H](CC(=O)O)NC(=O)[C@H](CO)NC(=O)[C@@H](NC(=O)[C@H](Cc1ccccc1)NC(=O)[C@@H](NC(=O)CNC(=O)[C@H](CCC(N)=O)NC(=O)C(C)(C)NC(=O)[C@@H](N)Cc1c[nH]cn1)[C@@H](C)O)[C@@H](C)O)C(C)C)C(C)C)C(=O)N[C@@H](CC(C)C)C(=O)NC(C)(C)C(=O)N[C@@H](CCC(=O)O)C(=O)O
Take B5: in assay [1], the “hGluc-R EC50 (pM)” value stood at 161 pM. The “hGLP-1R EC50 (pM)” value in assay [2] is 82.4 pM.

B6: Peptide 520 (peptide)
peptide: H[Aib]QGTFTSDVSK[αMeF]LDTKRARDFVQWLLE[Aib]G-OH
modifications: not fully specified (residue 17)
As for B6, the “hGluc-R EC50 (pM)” value in assay [1] was 1620 pM. Also, the “hGLP-1R EC50 (pM)” value in assay [2] came to 543 pM.

B7: Peptide 518 (peptide)
peptide: H[Aib]QGTFTSDVSK[αMeF]LDTK([AEEA-AEEA-γGlu-γGlu-C18 diacid])RARDFVQWLLE[Aib]G-OH
modifications: N-terminus assumed
SMILES: CC(C)C[C@H](NC(=O)[C@H](Cc1c[nH]c2ccccc12)NC(=O)[C@H](CCC(N)=O)NC(=O)[C@@H](NC(=O)[C@H](Cc1ccccc1)NC(=O)[C@H](CC(=O)O)NC(=O)[C@H](CCCNC(=N)N)NC(=O)[C@H](C)NC(=O)[C@H](CCCNC(=N)N)NC(=O)[C@H](CCCCNC(=O)COCCOCCNC(=O)COCCOCCNC(=O)CC[C@H](NC(=O)CC[C@H](NC(=O)CCCCCCCCCCCCCCCCC(=O)O)C(=O)O)C(=O)O)NC(=O)[C@@H](NC(=O)[C@H](CC(=O)O)NC(=O)[C@H](CC(C)C)NC(=O)[C@](C)(Cc1ccccc1)NC(=O)[C@H](CCCCN)NC(=O)[C@H](CO)NC(=O)[C@@H](NC(=O)[C@H](CC(=O)O)NC(=O)[C@H](CO)NC(=O)[C@@H](NC(=O)[C@H](Cc1ccccc1)NC(=O)[C@@H](NC(=O)CNC(=O)[C@H](CCC(N)=O)NC(=O)C(C)(C)NC(=O)[C@@H](N)Cc1c[nH]cn1)[C@@H](C)O)[C@@H](C)O)C(C)C)[C@@H](C)O)C(C)C)C(=O)N[C@@H](CC(C)C)C(=O)N[C@@H](CCC(=O)O)C(=O)NC(C)(C)C(=O)NCC(=O)O
Regarding B7, in assay [1], the “hGluc-R EC50 (pM)” value turned out to be 77.3 pM. Besides, the “hGLP-1R EC50 (pM)” value in assay [2] worked out at 31 pM.

B8: Peptide 166 (peptide)
peptide: H[Aib]QGTFTSDVSK[αMeF]LDSK([AEEA-AEEA-γGlu-C18 diacid])RARDFVRWLL[Aib]TE-OH
modifications: N-terminus assumed
SMILES: CC(C)C[C@H](NC(=O)[C@H](Cc1c[nH]c2ccccc12)NC(=O)[C@H](CCCNC(=N)N)NC(=O)[C@@H](NC(=O)[C@H](Cc1ccccc1)NC(=O)[C@H](CC(=O)O)NC(=O)[C@H](CCCNC(=N)N)NC(=O)[C@H](C)NC(=O)[C@H](CCCNC(=N)N)NC(=O)[C@H](CCCCNC(=O)COCCOCCNC(=O)COCCOCCNC(=O)CC[C@H](NC(=O)CCCCCCCCCCCCCCCCC(=O)O)C(=O)O)NC(=O)[C@H](CO)NC(=O)[C@H](CC(=O)O)NC(=O)[C@H](CC(C)C)NC(=O)[C@](C)(Cc1ccccc1)NC(=O)[C@H](CCCCN)NC(=O)[C@H](CO)NC(=O)[C@@H](NC(=O)[C@H](CC(=O)O)NC(=O)[C@H](CO)NC(=O)[C@@H](NC(=O)[C@H](Cc1ccccc1)NC(=O)[C@@H](NC(=O)CNC(=O)[C@H](CCC(N)=O)NC(=O)C(C)(C)NC(=O)[C@@H](N)Cc1c[nH]cn1)[C@@H](C)O)[C@@H](C)O)C(C)C)C(C)C)C(=O)N[C@@H](CC(C)C)C(=O)NC(C)(C)C(=O)N[C@H](C(=O)N[C@@H](CCC(=O)O)C(=O)O)[C@@H](C)O
Consider B8, for which the “hGluc-R EC50 (pM)” value in assay [1] is 270 pM. Besides, in assay [2], the “hGLP-1R EC50 (pM)” value was found to be 48 pM.
